Data as given in patent publication US20140178364A1.

Target: interleukin 3 receptor α (IL-3Rα) chain (human) (UniProt P26951)
Assay: cell-based or functional assay

UniProt P26951, sequence (P26951 20-378): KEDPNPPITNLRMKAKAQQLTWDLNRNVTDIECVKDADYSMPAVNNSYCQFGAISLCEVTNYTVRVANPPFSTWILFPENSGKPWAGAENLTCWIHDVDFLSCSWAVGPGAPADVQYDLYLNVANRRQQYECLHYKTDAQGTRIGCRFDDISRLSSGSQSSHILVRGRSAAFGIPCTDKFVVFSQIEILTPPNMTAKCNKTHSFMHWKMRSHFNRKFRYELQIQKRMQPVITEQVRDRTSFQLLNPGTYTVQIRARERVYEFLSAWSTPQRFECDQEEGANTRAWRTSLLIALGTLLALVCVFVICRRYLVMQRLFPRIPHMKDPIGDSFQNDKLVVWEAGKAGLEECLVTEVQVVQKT

pDCs (% of total cells remaining in culture), 4 h, 10 µg/ml antibody on human PBMC (% of total cells): 0.1
pDCs (% of total cells remaining in culture), 24 h, 10 µg/ml antibody on human PBMC (% of total cells): 0.02
pDCs (% of total cells remaining in culture), 48 h, 10 µg/ml antibody on human PBMC (% of total cells): 0.005
Substance: chimeric version of 7G3 with a human IgG1 constant domain (ch7G3) (antibody)
